In this series the target is certain anti-BACE1 antibodies (tested in the FRET short substrate assay).

B1: BACE1 ECD (as used in the enzyme activity assay) (protein)
chain: TQHGIRLPLRSGLGGAPLGLRLPRETDEEPEEPGRRGSFVEMVDNLRGKSGQGYYVEMTVGSPPQTLNILVDTGSSNFAVGAAPHPFLHRYYQRQLSSTYRDLRKGVYVPYTQGKWEGELGTDLVSIPHGPNVTVRANIAAITESDKFFINGSNWEGILGLAYAEIARPDDSLEPFFDSLVKQTHVPNLFSLQLCGAGFPLNQSEVLASVGGSMIIGGIDHSLYTGSLWYTPIRREWYYEVIIVRVEINGQDLKMDCKEYNYDKSIVDSGTTNLRLPKKVFEAAVKSIKAASSTEKFPDGFWLGEQLVCWQAGTTPWNIFPVISLYLMGEVTNQSFRITILPQQYLRPVEDVATSQDDCYKFAISQSSTGTVMGAVIMEGFYVVFDRARKRIGFAVSACHVHDEFRTAAVEGPFVTLDMEDCGYNIPQTDESTLMT
With B1, the “Modulation of BACE1 activity (cleavage of FRET short substrate Mca-SEVNLDAEFRK(Dnp)RR-NH2)” value was “both enzyme inhibition (positive percentages), and enzyme activation (negative values) were observed”.

For the origin of these results see patent US20210206877.
